# Measured values published in patent US9315837B2, “Desaturases of a green microalga and uses thereof” (Ben Gurion University of the Negev Research and Development …, priority 2010, dated 2016).
# Several values for one entry are separate records, joined by “and”; a condition that tells them apart may be missing. Equal values may be shown once. Marks after values point to notes of the source that are not given here.
# B1: PiDes12: P. incisa Δ12 desaturase, predicted protein of 380 amino acids, SEQ ID NO: 1 (protein, listed as Parietochloris incisa)
# chain: MGKGGCYQAGPPSAKKWESRVPTAKPEFTIGTLRKAIPVHCFERSIPRSFAYLAADLAAIAVMYYLSTFIDHPAVPRVLAWGLLWPAYWYFQGAVATGVWVIAHECGHQAFSPYQWLNDAVGLVLHSCLLVPYYSWKHSHRRHHSNTGSTTKDEVFVPREAAMVESDFSLMQTAPARFLVIFVSLTAGWPAYLFANASGRKYGKWANHFDPYSPIFTKRERSEIVVSDVALTVVIAGLYSLGKAFGWAWLVKEYVIPYLIVNMWLVMITLLQHTHPELPHYADKEWDWLRGALATCDRSYGGMPDHLHHHIADTHVAHHLFSTMPHYHAQEATEAIKPILGKYYKQDKRNVWAALWEDFSLCRYVAPDTAGSGILWFRA
# B2: PiDes5: P. incisa Δ5 desaturase, predicted protein of 482 amino acids, SEQ ID NO: 3 (protein, listed as Parietochloris incisa)
# chain: MMAVTEGAGGVTAEVGLHKRSSQPRPAAPRSKLFTLDEVAKHDSPTDCWVVIRRRVYDVTAWVPQHPGGNLIFVKAGRDCTQLFDSYHPLSARAVLDKFYIGEVDVRPGDEQFLVAFEEDTEEGQFYTVLKKRVEKYFRENKLNPRATGAMYAKSLTILAGLALSFYGTFFAFSSAPASLLSAVLLGICMAEVGVSIMHDANHGAFARNTWASHALGATLDIVGASSFMWRQQHVVGHHAYTNVDGQDPDLRVKDPDVRRVTKFQPQQSYQAYQHIYLAFLYGLLAIKSVLLDDFMALSSGAIGSVKVAKLTPGEKLVFWGGKALWLGYFVLLPVVKSRHSWPLLAACWLLSEFVTGWMLAFMFQVAHVTSDVSYLEADKTGKVPRGWAAAQAATTADFAHGSWFWTQISGGLNYQVVHHLFPGICHLHYPAIAPIVLDTCKEFNVPYHVYPTFVRALAAHFKHLKDMGAPTAIPSLATVG
# B3: PiDes6: P. incisa Δ6 desaturase, predicted protein of 481 amino acids, SEQ ID NO: 2 (protein, listed as Parietochloris incisa)
# chain: MCQGQAVQGLRRRSSFLKLTGDAIKGAVAAISDFNKLPAATPVFARRSLSDSALQQRDGPRSKQQVTLEELAQHNTPEDCWLVIKNKVYDVSGWGPQHPGGHVIYTYAGKDATDVFACFHAQTTWSQLRPFCIGDIVEEEPMPALLKDFRELRTRLQQQGLFRSNKLYYLYKVASTLSLLAAALAVLITQRDSWLGLVGGAFLLGLFWQQSGWLAHDFLHHQVFTDRQWNNVMGYFLGNVCQGFSTDWWKSKHNVHHAVPNELDSDSKAARDPDIDTLPLLAWSSEMLDSMSNSGARLFVRMQHYFFFPILLFARMSWCQQSVAHASDLSRTSKAGVYELAYLALHYAWFLGAAFSVLPPLKAVVFALLSQMFSGFLLSIVFVQSHNGMEVYSDTKDFVTAQIVSTRDILSNVWNDWFTGGLNYQIEHHLFPTLPRHNLGKVQKSIMELCHKHGLVYENCGMATGTYRVLQRLANVAAEA
# Key:
# [1] = test system: supplied fatty acids in S. cerevisiae strain W303; experiment: Functional expression of PiDes12, PiDes6 and PiDes5 in S. cerevisiae fed with fatty acid substrates, GC of FAMEs; format: cell-based, Saccharomyces cerevisiae; settings: for substrate conversion (ARA emergence after addition of DGLA): PiDes5 transformant, total fatty acids
# Excerpt: (§1) The open reading frames (ORFs) encoding for the […], Δ6, and Δ5 desaturases were amplified using PfuUltra II fusion HS DNA polymerase (Stratagene, La Jolla, Calif., USA) with the respective primer pairs (Table 1). The forward primers contained a restriction site (underlined) and a yeast translation consensus (double underlined) followed by ATG. The reverse primers contained a restriction site (underlined) and a stop codon (double underlined). Following restriction and ligation to the pYES2 vector (Invitrogen, Carlsbad, Calif., USA), the constructs were used to transform S. cerevisiae strain W303 by the PEG/lithium acetate method [R. D. Gietz, R. A. Woods, Yeast Transformation by the LiAc/SS Carrier DNA/PEG Method, in: W. Xiao (Ed.), Yeast Protocols, Second Edition, vol. 313, Methods in Molecular Biology, Humana Press Inc, Totowa, N. J., 2006, pp. 107-120]. The yeast cells harboring the empty pYES2 vector were used as control. Transformants were selected by uracil prototrophy on yeast synthetic medium (YSM) lacking uracil (Invitrogen, Carlsbad, Calif., USA). For functional expression, a minimal selection medium containing 2% (w/v) raffinose was inoculated with the pYPiDesΔ12, pYPiDesΔ6 or pYPiDesΔ5 transformants and grown at 27° C. for 24 h in a water bath shaker. Five ml of sterile YSM, containing 1% (w/v) Tergitol-40 and 250 µM of the appropriate fatty acid substrate was inoculated with raffinose-grown cultures to obtain an OD of 0.2 at 600 nm. Expression was induced by adding galactose to a final concentration of 2% (w/v) and cultures were further grown at 27° C. for 48 h. Cells were harvested by centrifugation, washed twice with 0.1% NaHCO^3, freeze-dried and used for fatty acid analysis.
# (§2) Fatty acid methyl esters (FAMES) were obtained by transmethylation of the freeze-dried P. incisa or yeast biomass, with dry methanol containing 2% H2SO4 (v/v) and heating at 80° C. for 1.5 h while stirring under an argon atmosphere. Gas chromatographic analysis of FAMES was performed on a Thermo Ultra Gas chromatograph (Thermo Scientific, Italy) equipped with PTV injector, FID detector and a fused silica capillary column (30 m×0.32 mm; ZB WAXplus, Phenomenex). FAMES were identified by co-chromatography with authentic standards (Sigma Chemical Co., St. Louis, Mo.; Larodan Fine Chemicals, Malmo, Sweden) and FAME of fish oil (Larodan Fine Chemicals). Each sample was analyzed in duplicates of three independent experiments. The structures of fatty acids were confirmed by GC-MS of their pyrrolidine derivatives [W. W. Christie, The analysis of fatty acids in: W. W. Christie (Ed.), Lipid analysis Isolation, separation, identification and structural analysis of lipids, vol. 15, Third edition, The Oily Press, Bridgewater, England, 2003, pp. 205-225] on HP 5890 equipped with a mass selective detector (HP 5971A) utilizing a HP-5 capillary column and a linear temperature gradient from 120 to 300° C.
# The functional activities of the proteins encoded by PiDes12, PiDes6 and PiDes5 were examined by heterologous expression in S. cerevisiae. To this aim, the pYES2 constructs pYPiDes12, pYPiDes6 and pYPiDes5 containing the ORFs for PiDes12, PiDes6, and PiDes5, respectively, were transformed into S. cerevisiae. […] An attempt to improve the expression of the recombinant protein and to increase the activity by the modification of yeast translation consensus was not successful.
# PiDes6 and PiDes5 expressions were induced in the presence of the main ω6 substrates for Δ6 or Δ5 fatty acid desaturases, 18:2ω6 and 20:3ω6, respectively. New peaks corresponding to 18:3ω6 and 20:4ω6, respectively, were detected, confirming the predicted function of PiDes6 and PiDes5. […] PiDes6 was not active on […] either, whereas PiDes5 desaturated it to the non-methylene-interrupted 20:4^Δ5,11,14,17. PiDes5 converted 20:4ω3 into the respective Δ5 product, 20:5ω3 (EPA) as well as the added 18:1 into the non-methylene-interrupted 18:2^Δ5,9 (FIG. 3). […]
# [2] = test system: 20:3ω6 in lipid classes of S. cerevisiae; experiment: Fatty acid analysis of individual lipid classes of S. cerevisiae expressing the PiDes5 ORF, fed with 20:3ω6; format: cell-based, Saccharomyces cerevisiae; settings: for % conversion: 24 h after feeding 20:3ω6
# Excerpt: as §1, §2
# The biomass of S. cerevisiae was heated with isopropanol at 80° C. for 10 min and lipids were extracted by the method of Bligh-Dyer (1959) [E. G. Bligh, W. J. Dyer, A rapid method of total lipid extraction and purification, Can. J. Biochem. Physiol. 37 (1959) 911-917]. Total lipid extract was separated into neutral and polar lipids by silica Bond-Elute cartridges (Varian, Calif.) using 1% of ethanol in chloroform (v/v) and methanol to elute neutral and polar lipids, respectively [Z. Cohen, S. Didi, Y. M. Heimer, Overproduction of γ-linolenic and eicosapentaenoic acids by algae, Plant Physiol. 98 (1992) 569-572]. […]
# [3] = substrate 18:1^Δ9, PiDesΔ5 product 18:2^Δ5,9, product/(substrate + product)
# [4] = substrate 18:3^Δ9,12,15, PiDesΔ6 product 18:4^Δ6,9,12,15, PiDesΔ5 product 18:4^Δ5,9,12,15 (tentative identification)
# [5] = substrate 20:3^Δ11,14,17, PiDesΔ5 product 20:4^Δ5,11,14,17
molecule,measurement,setting,value
B1,desaturation activity,[1]; heterologous expression in yeast,very low desaturation activity
same,peak corresponding to 18:2,[1]; yeast transformed with pYPiDes12,0.3 % of TFA
B2,"20:4ω6, fatty acid composition",[2]; lipid class DAG,2.0 % of total fatty acids
same,% conversion,[2]; lipid class DAG,24.0%
same,"20:4ω6, fatty acid composition",[2]; lipid class FFA,3.6 % of total fatty acids
same,% conversion,[2]; lipid class FFA,17.2%
same,"20:4ω6, fatty acid composition",[2]; lipid class PC,3.6 % of total fatty acids
same,% conversion,[2]; lipid class PC,24.2%
same,"20:4ω6, fatty acid composition",[2]; lipid class PE,1.6 % of total fatty acids
same,% conversion,[2]; lipid class PE,24.6%
same,"20:4ω6, fatty acid composition",[2]; lipid class PI + PS,1.1 % of total fatty acids
same,% conversion,[2]; lipid class PI + PS,18.1%
same,"20:4ω6, fatty acid composition",[2]; lipid class SE,1.1 % of total fatty acids
same,% conversion,[2]; lipid class SE,8.4%
same,"20:4ω6, fatty acid composition",[2]; lipid class TAG,2.0 % of total fatty acids
same,% conversion,[2]; lipid class TAG,9.3%
same,20:4ω6 share by lipid class (% of total lipid),[2]; share found in lipid class DAG,1.4 % TL
same,20:4ω6 share by lipid class (% of total lipid),[2]; share found in lipid class FFA,9.1 % TL
same,20:4ω6 share by lipid class (% of total lipid),[2]; share found in lipid class PC,25.7 % TL
same,20:4ω6 share by lipid class (% of total lipid),[2]; share found in lipid class PE,2.3 % TL
same,20:4ω6 share by lipid class (% of total lipid),[2]; share found in lipid class PI + PS,4.4 % TL
same,20:4ω6 share by lipid class (% of total lipid),[2]; share found in lipid class SE,1.8 % TL
same,20:4ω6 share by lipid class (% of total lipid),[2]; share found in lipid class TAG,55.2 % TL
same,substrate conversion (ARA emergence after addition of DGLA),[1]; after 3 h,10.9% and 10.6%
same,substrate conversion (ARA emergence after addition of DGLA),[1]; after 24 h,15.1%
same,Desaturase product and conversion (%) of supplied fatty acid,[1]; [3],"18:2^Δ5,9 (4.2) %"
same,Desaturase product and conversion (%) of supplied fatty acid,[1]; [4],"18:4^Δ5,9,12,15** (1.4) %"
same,Desaturase product and conversion (%) of supplied fatty acid,"[1]; substrate 20:3^Δ8,11,14, PiDesΔ5 product 20:4^Δ5,8,11,14","20:4^Δ5,8,11,14 (16.4) %"
same,Desaturase product and conversion (%) of supplied fatty acid,[1]; [5],"20:4^Δ5,11,14,17 (10.0) %"
same,Desaturase product and conversion (%) of supplied fatty acid,"[1]; substrate 20:4^Δ8,11,14,17, PiDesΔ5 product 20:5^Δ5,8,11,14,17","20:5^Δ5,8,11,14,17 (17.1) %"
B3,Desaturase product and conversion (%) of supplied fatty acid,[1]; [3],neither active
same,Desaturase product and conversion (%) of supplied fatty acid,"[1]; substrate 18:2^Δ9,12, PiDesΔ6 product printed 18:2^Δ6,9,12, product/(substrate + product)","18:2^Δ6,9,12 (5.1) %"
same,Desaturase product and conversion (%) of supplied fatty acid,[1]; [4],"18:4^Δ6,9,12,15 (4.5) %"
same,Desaturase product and conversion (%) of supplied fatty acid,[1]; [5],not active
